Data taken from article PMC5605686, “Ang-(1-7) is an endogenous β-arrestin-biased agonist of the AT1 receptor with protective action in cardiac hypertrophy” (Scientific Reports, 2017).

What was measured:
[1] = test system: isoproterenol-induced cardiac hypertrophy; assay: Isoproterenol-induced cardiac hypertrophy in rats (HW/BW ratio, left ventricular wall thickness); assay type: in vivo, Wistar rats; settings: co-treatment with Ang-(1-7), 10 mg/kg per day orally, 7 days
Protocol: The isoproterenol-induced cardiac hypertrophy experimental model was chosen aiming to avoid any involvement of the RAS, as it is known that other models such as pressure-overload, SHR, or mRen2 involve RAS components[50],[60],[61]. Cardiac hypertrophy was induced in male, 6 weeks-old Wistar rats by administration of Isoproterenol [(Iso) 2 mg/kg per day, i.p. diluted in saline, for 7 days]. All experimental protocols were performed in accordance with the Brazilian Council for Control of Animal Experimentation - “Conselho Nacional de Controle de Experimentação Animal” (CONCEA), Brazil; and approved by the Animal Ethical Committee from the Ribeirão Preto Medical School, University of São Paulo (CEUA).
Rats receiving Iso were randomly submitted to treatment for 7 days with either vehicle, Ang-(1-7) [24 μg/kg per hour, via ALZET® osmotic minipumps (Durect, Cupertino, CA, USA)], Ang-(1-7) plus Losartan (10 mg/kg per day orally), Ang-(1-7) plus A779 (744 μg/kg per day i.p.), or Ang-(1-7) plus Losartan plus A779 (same doses as described). Doses and administration methods of drugs were based in previously published literature[62]–[66].
Cardiac hypertrophy was confirmed by cardiac mass and histomorphometric analyses. To determine cardiac mass, hearts were removed, dried and weighted. Heart weight (HW) was normalized by the body weight (BW) (HW/BW*1000). For histomorphometric analysis, hearts were cut transversely, fixed in paraformaldehyde (4%) for 24 hours, and kept in ethanol (70%) until dehydration, which consisted in sequential washes with 70, 80, 90 and 100% ethanol. Samples were cleared in xylene and embedded in paraffin. Transversal sections (6 µm) were obtained from the cardiac samples at intervals of 40 µm and stained with hematoxylin and eosin. Images were captured using an Olympus BK 50 microscope (Olympus Corporation of the Americas, Center Valley, PA, USA) equipped with a SPOT RT3 digital camera (Diagnostic Instruments, Inc., Sterling Heights, MI, USA) and measured with ImageJ software (NIH, USA).

[2] = target: T1, angiotensin II type 1 receptor (UniProt P30556 1-359); assay: cell-based or functional assay
T1 sequence (looked up): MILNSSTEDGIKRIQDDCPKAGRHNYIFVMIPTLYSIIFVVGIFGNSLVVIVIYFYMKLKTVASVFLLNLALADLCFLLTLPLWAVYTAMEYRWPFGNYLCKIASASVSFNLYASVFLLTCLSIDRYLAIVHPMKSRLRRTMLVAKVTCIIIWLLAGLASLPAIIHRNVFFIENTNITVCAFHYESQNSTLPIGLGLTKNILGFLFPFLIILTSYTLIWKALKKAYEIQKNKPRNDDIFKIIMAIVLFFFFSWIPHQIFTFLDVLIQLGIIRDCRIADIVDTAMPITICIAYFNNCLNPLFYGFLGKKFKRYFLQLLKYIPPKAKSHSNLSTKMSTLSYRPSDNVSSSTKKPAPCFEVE

AT1R-GFP = target: T2, AT1R-GFP (UniProt P30556 1-359); assay: cell-based or functional assay
T2 sequence (looked up): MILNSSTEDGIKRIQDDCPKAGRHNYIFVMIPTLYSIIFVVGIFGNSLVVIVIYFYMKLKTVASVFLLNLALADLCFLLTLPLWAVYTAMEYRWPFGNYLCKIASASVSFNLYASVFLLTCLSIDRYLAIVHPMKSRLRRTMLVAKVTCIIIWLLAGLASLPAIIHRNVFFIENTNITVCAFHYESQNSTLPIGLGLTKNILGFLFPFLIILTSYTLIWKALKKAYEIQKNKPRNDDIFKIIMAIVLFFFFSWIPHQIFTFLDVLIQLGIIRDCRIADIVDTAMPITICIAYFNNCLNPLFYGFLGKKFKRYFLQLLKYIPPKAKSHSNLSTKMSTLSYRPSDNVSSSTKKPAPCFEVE

[3] = target: T1, angiotensin II type 1 receptor; assay: radioligand binding; competition against 0.5 nM [^3H]AngII on whole HEK293T cells transiently expressing AT1R; 24 h at 4 °C; 25 mM Tris-HCl pH 7.4, 5 mM MgCl2, 0.1% BSA, 100 μg/mL bacitracin; settings: one partner purified

Row | Molecule | blockade of the effect of Ang-(1-7) on the cardiovascular parameters (HW/BW, wall thickness, EDP) [1] | β-arrestin 1 conformational change (intramolecular BRET, RLucII-β-arr1-GFP10) in HEK293T cells expressing AT1R, pEC50 [2] | recruitment of β-arr1-RLucII to AT1R-GFP (BRET), pEC50 of the agonist (AT1R-GFP) | pKi [3]
1 | CCCCc1nc(Cl)c(CO)n1Cc1ccc(-c2ccccc2-c2nn[nH]n2)cc1 [Losartan, reference compound] | did not prevent the effect of Ang-(1-7) | – | – | –
2 | DRVYIHP (heptapeptide angiotensin-(1-7), cut from AngII by ACE2 or from AngI by endopeptidases; printed in three-letter code; also called Ang-(1-7); Ang1-7) [angiotensin-(1-7)] | – | 6.61 | 6.38 | 6.66
